Assay: soluble fraction after stress (log2 fold change); higher = more stays soluble; pooled small domains, quantitative proteomics
Conditions: stress: 75 degC
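Note: 20 min heating vs room temperature control held 20 min.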

HMKSEIRKKNSQIILDAAEHEFSVHGYRGTSVQMIADRSGLPKANLHYYYKSKSALYGAVLDRIL
soluble fraction (log2): 0.215

HMFRPRIEPGAKGSYVLEVQKRLAKLGYEHAGFDGVYGPGTERAIMQLQRDKGLPVTGIVDMRTYEALGLF
soluble fraction (log2): -0.99

HMLPIKLDLEIGENVRVVSGPLENFVGSVVSFDTDQQKVKLVVEMFGRKTPVELDFIEVQKLR
soluble fraction (log2): -2.24

HMQRYFLEEAYQPSEKFELSAEAFHHIVHVMRMKPKDRVYLAFSDQQVIIAEITEITEEKVYLTEIEKEE
soluble fraction (log2): -3.23

HMQEPNYQPLMQNIKSQDLEEVTRLLSLNDVKFKIDHRTGLLLVESSRVYEAKMKLAATGITD
soluble fraction (log2): -1.07

HMINIQYSYNDGKETLHNLSPEVIAEKIMDDPNGYHIVWKQGMVGWVNANDIDDIAKLLRQKK
soluble fraction (log2): -0.311

HMDEDLQEALRKLNPIQANERKLLLKMLEQHRWNVSSVAKAFDVSRNTLYRRLHKLHIPLSNPSE
soluble fraction (log2): -1.33

HMENFYGYEIINPEAKKFFITMGVNRYALEQWIKNKSEYGLIIVKSLYPFDPRLKLFLEKNRERIQNLIF
soluble fraction (log2): -0.526

HMIEFYTMQDMFYFKLTGDNTSRERREALGKILGIGYGNATQMVSRLNNYGISKEEFSKAIEEIEKQLEA
soluble fraction (log2): -2.89

HMKDIIVLGAIQAGIKKFDKIQKMTQIEPEELNSILEQLENRGFIQVAEKSGLLGKKIEILVTEKGSNEVD
soluble fraction (log2): 0.223

HMQIDDSVELSAIVEKLLAANPEQVEQLKNGKTKVLGYFVGLAMKETQGRANPQKVNELIQTHL
soluble fraction (log2): -0.519

HMELPPLQPGQPIDGRVEQQIRAGYYVVSVRGRGYEFQLPESARPGDLLRMVYLNDHPRLTFALLRIDNAN
soluble fraction (log2): -1.5

HMTEDELLAQFEEILDGYVGKPGGLIPALQTAQKLFGYLPKRVLQLISMKLDIPYSEVTGVVSFYSFFTTV
soluble fraction (log2): 0.28

HMEVKSGFVHLTGAVKSPGVYPISIGMRLFEVIALAGGFTAKADRESVNLARTVTDGEQIIVSGSG
soluble fraction (log2): -3.72

HMHSPLLDRYLAEVGWRLRHLSGAQREDILAGLREHIADLESAGVAPEEIVARLGSPESVADAAAGEF
soluble fraction (log2): -0.0802

HMGLQDLFLNSLRKSKTPVTMFLVKGVKLQGVVTWFDNFSVLLRRDGMSQLVYKHSISTIMP
soluble fraction (log2): -0.0352

HMGKQPLYEQLVDLLRDRIENDMETGELLPSERKLAHHFGLSRTTVRLAMDRLETLGLITRVHGKDTFVAE
soluble fraction (log2): -1.52

HMGAAFITSSKDNAINIRQSANTDSKVIETVTNGQILESNEKSGEWHKVTYYDNDIKKSFTGYVHEGQLK
soluble fraction (log2): 0.0505

HMDGYVPAERIASEVGVSARTITREMHGLEMTLMPYGIALLRRTGAGFMLAGTAKALADLRKHMTEDADTQ
soluble fraction (log2): 0.134

HMQGTTTELLIQKSALYEELNDPEKALNAMFDAFEMDSLNVNVLHRIVSLLLDKEENEKAILYNQLIIDH
soluble fraction (log2): 0.0862

HMTSVAYVIDRINKIQNVYSELEALGLKDEFEKILSNIEDLSKKDIREIKTLLKTKGVIKNLDDLNVKL
soluble fraction (log2): 0.762

HMTSMTHLGRHPDSEISLDDISVSRRHAEIERQGHEYVLRDSGSLNGTYVNQQRVDSVVLQQGDEIL
soluble fraction (log2): 0.48

HMGLLLSQLDKDYQRYIDLADSTFRDNQLAVSRGWYNRALGVKAAEKYPKDQIAEIEKKIAERM
soluble fraction (log2): -0.598

HMKMTIEDLITQAKESNAAENYYEAFQLYSKAIDVLPNDPDLYSARGVVLFHLDRKEDSLIDMNKSVD
soluble fraction (log2): -0.17

HMDDVGYLRKRLQQALAQLSDDLRNTYTLFQIGKQSIKQIAAETGASESLVKVRIHRAKQKLQELLADLQ
soluble fraction (log2): -1.47

HMHRTRNAERTRAAVLKAAAEVLAERGTGASLARIAEVAGVSKSGLLHHFANREQLIVALLED
soluble fraction (log2): -1.16

HMSQTVKYVNTTSGLNMRTGPATSYAKITTIAYGQSVNVLSTSNGWSKINYSGSTGYVSSQYLQSKKPS
soluble fraction (log2): -2.77

HMKHVENLSDEKTIQAIQENPYMQYLLGLSKFTEKPVFVPELFVLIRKRLDQDFFNMLTLILAEADG
soluble fraction (log2): ≥ 1.04

HMKERVSWDERLERFAKHITENESLPYPSSKEYAWFEENKALYDAGELEPVRAQSFAFLLKIMRRMNL
soluble fraction (log2): -1.7

HMKSKYLIKIEGDFDEKDLYKYLINVSIVNHTKNNGFTEVEFYNDNYSLQQNFLKSMLNDGIIITEFKKVE
soluble fraction (log2): -0.49

HMSATPQRMTIIDALDSSGKNLSAYELLDLLNDKGQLFNISTIYRVLDFWIEMGIVHKINSSNTYL
soluble fraction (log2): 0.15

HMGERVDGVVKFFNGQKGFGFIQREDGGPDAFVHISAVERAGMAGLDEGQRVSFELELDRRGKQAAINLTP
soluble fraction (log2): 0.108

HMNNLELSEEEKSVLTIIEKEGLIELDKLKTKLELSNKKWDKTLKFLTKNKLAKVVKNDNGLFVEL
soluble fraction (log2): -0.158

HMSEYVIVTGEKVNLRVGPGMDYEIAGQVVKGDKLELLASEGDWSKVKTGSGSIYYISSSLVQKA
soluble fraction (log2): -0.157

HMRKSAVSSTLTSIEGIGATRAKALLKHFKTVAAVSEADLKELEDAPGMTRPSALRVYEYFHGK
soluble fraction (log2): -0.342

HMQILLASHAELAKGILSAVELIAGTQQNLKAYSAYTEAVDVHFKDQMLQDLNKMDPEDEVIL
soluble fraction (log2): 0.137

HMGAIVTGTVVEIRSDVVIVNAGLKSEGVVPIEQFRNEAGELEVSVGDEVKVALDALEDGFGETRLS
soluble fraction (log2): -0.347

HMDTHDVQVPQEGQGLRLDLFLTDHIEGSRSFIQTIIKDGHVILNGKKAKANSRLNEGDYVVWSIPKPE
soluble fraction (log2): -0.288

HMPTMEQTYIGRTMIAEEDMGKNSKIKVSGIYWTAYNKGRVIKKGEEYKITGIEGNKLIVSSK
soluble fraction (log2): -0.393

HMSNGYVTAKTTVNVRKSASESGERLGVIYQGDKLELVMNQADGWTKVKYKGQTAYVKSEFM
soluble fraction (log2): -1.27

HMDPERLDQLQNPDPAVRREAIIALGRSKDLAALPELAKVYKNDPVPELRELARQAGRYIQQENRP
soluble fraction (log2): 0.00398

HMQVAPDLMQRLTSQGHVDEKLSDALVHARQITNFEGRRRQMQFIGKLMRKLSEESIEAVKDALNEQRM
soluble fraction (log2): -0.313

HMQVPWYQRLKEKRLEYGVSQNKLATHIGISRQYMSEIETGKVTPSDSLQATLFDILEQFNPDA
soluble fraction (log2): -0.817

HMSGIVPAAPPLRPDLDIKWHTGDKVRHAKWGEGTIVSVKGEGEETELKIAFPGQGIRPFMQKYAPITR
soluble fraction (log2): 0.218

HMRTPTGVQAYLSSGLIKGIGEKTAAAIVDKFGTDALSVIETDPERLLEIPGITPNKLREILESYNQH
soluble fraction (log2): 0.204

HMSLYGGYEIDIIKEEVVDAGIKLLRRRVIVADQRGISVYEGKPTFASDDQVLIKEGQYQIDKLG
soluble fraction (log2): -2.46

HMTGIQDVPALETRRVGNTFFFDRATDVQVYDLQGRLLQQARKVTSVSIGHLQQGVYVLTDGRASVKVQ
soluble fraction (log2): -1.51

HMGMLATFVTSAKVPDDVVYAITKEVFENLDEFKKLHPALEGLTRETMLEGLTAPIHPGALKYYKEAGLM
soluble fraction (log2): -0.533

HMNEMIFNQKKIGQFFMNPETNSPMIYPLELGHKMKIIELKNGWYNVTDEKTGLNGWVKEEDFGVTKPLDS
soluble fraction (log2): -0.346

HMYMKMNDRIRSRRKELKMTQSVLAKLVGVNRVTITGWESGDYKPGGENLQALAAALEKTPQWLLDGKD
soluble fraction (log2): -2.82

HMGIRQGKVTSTFVNVRSGASTANAKVGELHKGDVVSLIEKVANFWRIGPGQFVSADYIQVLAS
soluble fraction (log2): -2.07

HMTVVHRQVHLQPDQGAFRAALYSHKAVLSEQTDDQGAINLEIRLPESDFLRLLNSSGLKLQDLVP
soluble fraction (log2): -0.427

HMSETEWGEIYRKVMAAGLIPARSVRERLLALPSIEPLLQAAEAAGSKGMLDETLLDSLLSKT
soluble fraction (log2): 0.0662

HMPDLQDTLYRLVPEDGSAIGNQSLREKFLSTAKDASDADFEAARDGLVEQGKLTKGKGRGGSVRRAEP
soluble fraction (log2): 0.551

HMADLIIMSSDATEKQVDKVINKIKNMGFNVNISKGTEKTIIGIIGDTRGISDEVFKIMPGVIEVISILRD
soluble fraction (log2): -1.09

HMLKDKLSDKDFDFYKNKIQIQLQGNPTELKELVRRFSSTEEQQILKTIDYMLDNGFLRIDEDNMIYWK
soluble fraction (log2): -0.0419

HMPTSLPGIDIDEKNIVSSTGALSFKKVPKKLAIIGGGYIGLEMGSVWSRLGSSVTVIEYLNFITPG
soluble fraction (log2): 0.365

HMSQTDQALRHLIREAWATLPQRQQQAVELAYYEGLPDTEIAARLNQPVEEVKTSIVLGMAHLREALHSY
soluble fraction (log2): -0.811

HMVRRSERLHALTESLRRSGNRGRTAEQLATEFEVSVRTIKRDLVALEASGLPLWSRPGPGGGYGLLS
soluble fraction (log2): -0.953

HMDKPIVFLEDTKAHKSSDLQSPVYMTVPKGTIAFVIAEKGDWSQVYAGRVLDRNLASQWVRRGFS
soluble fraction (log2): 0.267

HMQQSVSSLVRRYMLQTIPGINFSLKSTALALNMSDRTLQRKLLSENTSYQIILDDVRKELAIKYLKE
soluble fraction (log2): -3.23

HMRKIVEGVLTKKEGKWYLLTDIETYKISDASAEYHKAELNDRASALIPAQNPKVPFASLEKVFN
soluble fraction (log2): -1.01

HMANAGKFDSDMGEKINFPGNRVSLTPSELEAARELAAIMGDRFFSQLIPTTSKVTVTEMLQSLK
soluble fraction (log2): 0.745

HMETGKLIKELRLKKGMTQEELADKTEVSSRTIQRIENGEVDPRAYTLQMIARALEVDYSLFME
soluble fraction (log2): -0.408

HMRIHKQLGDRIRNLRLSSGMNQEELAFKSGISAAHLGQIERGLKSPTISTIQKIAKALNVTLPILF
soluble fraction (log2): -0.631

HMPLLELPDDFYPAWKPKTIYVQGQRIMLDGVAFEAKWWTQGDNPASGQADPGSSPWRTLTQEEIAKLLE
soluble fraction (log2): -1.52

HMEAVGLTPRQGDVLALLLQGKPNKLIARDLNLSVETVKDHVAAVLRALGVSTRTQAVLAVSQMQQQAAQ
soluble fraction (log2): -0.444

HMSAPAKKPKIKVDLSKVHAGTIVRHKGYGLGQVKGIDGAIIVVTFDGVDKKFQFPGGFENGFLFLTED
soluble fraction (log2): -1.48

HMLIIMNSDATKEQVDHVTSRVREAGFKDHIMPGAGKVAIGVTGTGDYDQTKLHLEILPGVFKIMRITK
soluble fraction (log2): -0.816

HMSTFKSYRGKITASSGVNIRTGAGTNYNKNGALTYNSVVTIVDEKKVSGTTWGKLADGRGWISLDYLKK
soluble fraction (log2): -2.04

HMEPIAFDNMHNRGIKGTNDWTQYEITLPFSAEAKKIFVAGLLVGKGKAWFDKFEVFLDGKNITDVAQI
soluble fraction (log2): 0.0509

HMDLDPNKPAIPIAYPRVLLNIMAEKGFSRTEVLAGSGLADSVFDKPDHRITPAQFLFILMNSFYLS
soluble fraction (log2): -0.67

HMDSKYLRIFSTLIDEMEKMSPGEQLQSERELSQRFQVSPMTVRRALHKLSTEGYTSAIPGKGTFVRK
soluble fraction (log2): -0.707

HMSEYITEGWLREKFGLGWGTEVHLPLDSRLTPAAHQLLEERKIVIKYIDAEGRVFNPDKSGEEAPVQ
soluble fraction (log2): -0.41

HMSNLENSLNESLSLLKSNKYNEALEILKKIEIEDSRVFFLLGTIYSVMKNINLGEEFLIKASK
soluble fraction (log2): -1.64

HMNQSAVMAERMKQTKNRILQTAKEIFLEQGYKRTTIRQIVERSGITSGSIYNIFSSKEEIFSALVDDL
soluble fraction (log2): -3

HMPAVGGVVKGAVVSVGRNEVRLDIGGLAIGIIRGPELDKHVDLRIGDEVEATVITLDNEFGELELSL
soluble fraction (log2): -1.37

Reference: the domain aggregation screens of Martell et al. (2025)
